B1: ParC55 breakage-reunion domain of S. pneumoniae topo IV (domain or fragment, Streptococcus pneumoniae)
chain: MSNIQNMSLEDIMGERFGRYSKYIIQDRALPDIRDGLKPVQRRILYSMNKDSNTFDKSYRKSAKSVGNIMGNFHPHGDSSIYDAMVRMSQNWKNREILVEMHGNNGSMDGDPPAAMRYTEARLSEIAGYLLQDIEKKTVPFAWNFDDTEKEPTVLPAAFPNLLVNGSTGISAGYATDIPPHNLAEVIDAAVYMIDHPTAKIDKLMEFLPGPDFPTGAIIQGRDEIKKAYETGKGRVVVRSKTEIEKLKGGKEQIVITEIPYEINKANLVKKIDDVRVNNKVAGIAEVRDESDRDGLRIAIELKKDANTELVLNYLFKYTDLQINYNFNMVAIDNFTPRQVGIVPILSSYIAHRREVILARSRFDKEKAEKRLHIVEGLIRVISILDEVIALIRASENKADAKENLKVSYDFTEEQAEAIVTLQLYRLTNTDVVVLQEEEAELREKIAMLAAIIGDERTMYNLMKKELREVKKKFATPRLSSLEDTAKALE
modifications: Y118 covalently linked to the 5′-phosphate of the cleaved DNA (phosphotyrosyl linkage)
notes: ParC55, the breakage-reunion domain of topoisomerase IV subunit ParC, S. pneumoniae; residues 247-734 of the printed fusion; In the crystals this domain stood on one chain with ParE30, joined through one extra histidine, as the fusion protein m1; also called ParC domains; ParC dimer; source: E. coli BL21(λDE3) pLysS, purified to >95% homogeneity (as part of the ParE30-ParC55 fusion protein)
B2: ParE30 metal binding TOPRIM domain of S. pneumoniae topo IV (domain or fragment, Streptococcus pneumoniae)
chain: MKNKKDKGLLSGKLTPAQSKNPAKNELYLVEGDSAGGSAKQGRDRKFQAILPLRGKVINTAKAKMADILKNEEINTMIYTIGAGVGADFSIEDANYDKIIIMTDADTDGAHIQTLLLTFFYRYMRPLVEAGHVYIALPPLYKMSKGKGKKEEVAYAWTDGELEELRKQFGKGATLQRYKGLGEMNADQLWETTMNPETRTLIRVTIEDLARAERRVNVLMGDKVEPRRKWIEDNVKFTLEEATVF
notes: residues 2-245 of the printed fusion; In the crystals this domain stood on one chain with ParC55, joined through one extra histidine, as the fusion protein m1; also called ParE TOPRIM domain; ParE domains; source: E. coli BL21(λDE3) pLysS, purified to >95% homogeneity (as part of the ParE30-ParC55 fusion protein)

Data set [1] concerns the molecule itself. Nature of the data set: crystal structure; ParE30-ParC55 fusion protein (4.5 mg/ml) mixed with 18-mer V-site or E-site duplex DNA at 1:1.2 molar ratio, 2 mM delafloxacin, 10 mM MgCl2; sitting-drop vapour diffusion, 50 mM sodium cacodylate, 62.5 mM KCl, 7.5 mM MgCl2, 2.5% Tacsimate, 5.5–7% isopropanol, pH 6.5, 301 K; V18 with PEGylated graphene nucleant 2.0 Å, V18 and E18 without 2.4 Å.

Data set [2] addresses B1. The description is as above. The conditions noted are these: both partners purified.

Regarding B1, the binding result in data set [1] is given as “binds”.

Take B2: the binding result in data set [2] is “binds”.

Source of the values: publication PMC12217528, “Structural basis of topoisomerase targeting by delafloxacin” (Nature Communications, 2025).
